± gives the standard deviation of the averaged measurements.
System: Saccharomyces cerevisiae
Experiment: protein stability index of tFT-peptide fusion (C-terminal peptide) (PSI (0-1 scale)); higher = more stable (slower turnover)
Settings: genetic background: doa10 deletion; temperature: 30 C
Protocol: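 MPS profiling in S. cerevisiae of the tFT-X12 degron library: putative degron peptides plus stable controls, 12 aa, fused to the C-terminus of a sfGFP-mCherry timer. Cells are FACS-sorted into 8 mCherry/sfGFP bins and deep-sequenced. PSI runs from 0 (unstable) to 1 (stable). Backgrounds are wild type, das1Δ and doa10Δ at 30 °C, and wild type, das1Δ, cdc34-1 and cdc53-1 at 37 °C; 2-3 technical replicates each.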
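Further: PSI is a weighted mean of sequencing reads over stability bins, variants kept only with over 10 reads, mCherry proximal and sfGFP distal, peptide attached via GGGS linker.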

| Sequence | protein stability index |
| --- | --- |
| SCLVLDYCFSLV | 0.446 ± 0.019 |
| SCYDYVILLQLS | 0.178 ± 0.01 |
| SFFFTLLICFLF | 0.26 ± 0.021 |
| SFLLGCCWLVLC | 0.1353 ± 0.00058 |
| SFLLVWCLLPEI | 0.2695 ± 0.0018 |
| SFLVFLYFFMVF | 0.316 ± 0.016 |
| SGWGGGTWVKMG | 0.113 ± 0.013 |
| SIQRKIRRMKEN | 0.355 ± 0.017 |
| SIVDLFRLRSLS | 0.264 ± 0.032 |
| SLALLFSFLLFL | 0.605 ± 0.056 |
| SLFPHIFFFFFA | 0.343 ± 0.015 |
| SLICLSVGVLLR | 0.205 ± 0.003 |
| SLSSSFQFSSPS | 0.6672 ± 0.00083 |
| SPIGIFCFILCR | 0.176 ± 0.019 |
| SPTQIPLWILAS | 0.102 ± 0.0074 |
| SRGRVLRLLLLV | 0.0727 ± 0.011 |
| SRRCGLFVFILF | 0.365 ± 0.008 |
| SRSFFRRLLFCF | 0.3352 ± 0.0008 |
| SSAPPTLHTRPS | 0.664 ± 0.0071 |
| SSRRVVLPLLVA | 0.123 ± 0.011 |
| SVHKYGFIKEIN | 0.473 ± 0.035 |
| SVVLCRFVLRIF | 0.0747 ± 0.0075 |
| SVVWIRFVGVRV | 0.285 ± 0.0075 |
| SWFNLLSILPRD | 0.714 ± 0.029 |
| SWIKRYEITCIL | 0.363 ± 0.0093 |
| SWWISKWVGLNC | 0.367 ± 0.0053 |

| Sequence | protein stability index |
| --- | --- |
| SYMWLVEVLLFI | 0.173 ± 0.012 |
| SYVFEFIVSVVF | 0.23 ± 0.0064 |
| SYVVVFVIFCVG | 0.173 ± 0.0049 |
| TDFICLLWLLHW | 0.3864 ± 0.0017 |
| TFRVRRQKNRNM | 0.0838 ± 0.015 |
| TLFSFLLVFVFG | 0.185 ± 0.019 |
| TLLMVSMTVRPL | 0.26 ± 0.0094 |
| TPPLPTTPTLNS | 0.722 ± 0.025 |
| TPRQYVVSLSLC | 0.131 ± 0.0045 |
| TRVVSPNVILMC | 0.5135 ± 0.0048 |
| TTSHFCVVLVSV | 0.182 ± 0.012 |
| TVERKMYWQRWG | 0.1794 ± 0.00073 |
| TVGVGWVWVGVL | 0.367 ± 0.0044 |
| TVIVCCHLEVVY | 0.0254 ± 0.013 |
| VAALLCWLHLYA | 0.362 ± 0.007 |
| VAFVVALSLIFL | 0.281 ± 0.019 |
| VALSILCVFFFF | 0.24 ± 0.025 |
| VARLGGRIGWEG | 0.652 ± 0.026 |
| VCFCFLRFLSLL | 0.176 ± 0.0026 |
| VCFFSSSCFLLV | 0.463 ± 0.0036 |
| VCLVFVVRPCIR | 0.401 ± 0.0078 |
| VCLWAIHLSGCW | 0.453 ± 0.021 |
| VCNYRKLIWKHH | 0.0622 ± 0.031 |
| VCVLRWAVAPCR | 0.207 ± 0.0051 |
| VCWCVVVLEFGL | 0.168 ± 0.012 |
| VECPWFCLGVLA | 0.2324 ± 0.001 |

| Sequence | protein stability index |
| --- | --- |
| VERKLMTIYIKI | 0.492 ± 0.015 |
| VFAFVVFLHFEC | 0.184 ± 0.012 |
| VFFCLFWFFCSF | 0.454 ± 0.0066 |
| VFFVTSCWVFRG | 0.0921 ± 0.02 |
| VFGFSLLTLLVL | 0.324 ± 0.011 |
| VFRRWGLIGVIV | 0.181 ± 0.0038 |
| VFSGGGFFLKVV | 0.19 ± 0.0039 |
| VFSVSVLFLFFH | 0.251 ± 0.011 |
| VFVLFCAFVRAL | 0.0841 ± 0.013 |
| VFVLFLRAVACR | 0.0174 ± 0.0024 |
| VFVMVLCALFYF | 0.2436 ± 0.0014 |
| VFYRPFFVLFFV | 0.113 ± 0.016 |
| VGDVVWFGVGAG | 0.662 ± 0.022 |
| VGEQEVVGIGGV | 0.642 ± 0.026 |
| VGGGCVVVVRWG | 0.477 ± 0.022 |
| VGLWCWSFVLVW | 0.0842 ± 0.021 |
| VGRVIVIVVAGV | 0.236 ± 0.0065 |
| VGVCGSSGRVGG | 0.643 ± 0.021 |
| VGVIGWGGLGVG | 0.4929 ± 0.0046 |
| VHGWRPLLFHTR | 0.674 ± 0.024 |
| VHTAIFTSWRRL | 0.481 ± 0.018 |
| VIGLLSYFLVYL | 0.438 ± 0.032 |
| VIRSIVSAYMIC | 0.255 ± 0.0033 |
| VISGFVLVFRVR | 0.379 ± 0.026 |
| VKGYISLLLVLI | 0.289 ± 0.0043 |
| VLAARVVLLRCR | 0.179 ± 0.0064 |

Same assay, conditions: genetic background: wild type; temperature: 30 C

| Sequence | protein stability index |
| --- | --- |
| SCLVLDYCFSLV | 0.435 ± 0.02 |
| SCYDYVILLQLS | 0.213 ± 0.042 |
| SFFFTLLICFLF | 0.166 ± 0.028 |
| SFLLGCCWLVLC | 0.116 ± 0.0073 |
| SFLLVWCLLPEI | 0.299 ± 0.035 |
| SFLVFLYFFMVF | 0.303 ± 0.034 |
| SGWGGGTWVKMG | 0.12 ± 0.013 |
| SIQRKIRRMKEN | 0.333 ± 0.054 |
| SIVDLFRLRSLS | 0.298 ± 0.012 |
| SLALLFSFLLFL | 0.461 ± 0.015 |
| SLFPHIFFFFFA | 0.295 ± 0.032 |
| SLICLSVGVLLR | 0.188 ± 0.039 |
| SLSSSFQFSSPS | 0.65 ± 0.032 |
| SPIGIFCFILCR | 0.147 ± 0.038 |
| SPTQIPLWILAS | 0.114 ± 0.014 |
| SRGRVLRLLLLV | 0.0574 ± 0.026 |
| SRRCGLFVFILF | 0.277 ± 0.03 |
| SRSFFRRLLFCF | 0.352 ± 0.0083 |
| SSAPPTLHTRPS | 0.6631 ± 0.0044 |
| SSRRVVLPLLVA | 0.136 ± 0.033 |
| SVHKYGFIKEIN | 0.474 ± 0.046 |
| SVVLCRFVLRIF | 0.0735 ± 0.017 |
| SVVWIRFVGVRV | 0.328 ± 0.016 |
| SWFNLLSILPRD | 0.683 ± 0.019 |
| SWIKRYEITCIL | 0.39 ± 0.0099 |
| SWWISKWVGLNC | 0.402 ± 0.043 |

| Sequence | protein stability index |
| --- | --- |
| SYMWLVEVLLFI | 0.189 ± 0.012 |
| SYVFEFIVSVVF | 0.255 ± 0.014 |
| SYVVVFVIFCVG | 0.214 ± 0.015 |
| TDFICLLWLLHW | 0.41 ± 0.032 |
| TFRVRRQKNRNM | 0.099 ± 0.013 |
| TLFSFLLVFVFG | 0.206 ± 0.031 |
| TLLMVSMTVRPL | 0.272 ± 0.022 |
| TPPLPTTPTLNS | 0.71 ± 0.011 |
| TPRQYVVSLSLC | 0.123 ± 0.0062 |
| TRVVSPNVILMC | 0.526 ± 0.022 |
| TTSHFCVVLVSV | 0.217 ± 0.032 |
| TVERKMYWQRWG | 0.187 ± 0.0033 |
| TVGVGWVWVGVL | 0.403 ± 0.015 |
| TVIVCCHLEVVY | 0.0249 ± 0.0089 |
| VAALLCWLHLYA | 0.409 ± 0.029 |
| VAFVVALSLIFL | 0.333 ± 0.043 |
| VALSILCVFFFF | 0.273 ± 0.022 |
| VARLGGRIGWEG | 0.646 ± 0.013 |
| VCFCFLRFLSLL | 0.191 ± 0.0057 |
| VCFFSSSCFLLV | 0.45 ± 0.033 |
| VCLVFVVRPCIR | 0.414 ± 0.023 |
| VCLWAIHLSGCW | 0.449 ± 0.03 |
| VCNYRKLIWKHH | 0.0668 ± 0.033 |
| VCVLRWAVAPCR | 0.235 ± 0.032 |
| VCWCVVVLEFGL | 0.185 ± 0.029 |
| VECPWFCLGVLA | 0.284 ± 0.022 |

| Sequence | protein stability index |
| --- | --- |
| VERKLMTIYIKI | 0.499 ± 0.063 |
| VFAFVVFLHFEC | 0.238 ± 0.029 |
| VFFCLFWFFCSF | 0.453 ± 0.017 |
| VFFVTSCWVFRG | 0.109 ± 0.028 |
| VFGFSLLTLLVL | 0.347 ± 0.024 |
| VFRRWGLIGVIV | 0.226 ± 0.032 |
| VFSGGGFFLKVV | 0.215 ± 0.023 |
| VFSVSVLFLFFH | 0.242 ± 0.038 |
| VFVLFCAFVRAL | 0.0907 ± 0.0079 |
| VFVLFLRAVACR | 0.0193 ± 0.0039 |
| VFVMVLCALFYF | 0.236 ± 0.017 |
| VFYRPFFVLFFV | 0.0946 ± 0.022 |
| VGDVVWFGVGAG | 0.6566 ± 0.005 |
| VGEQEVVGIGGV | 0.646 ± 0.023 |
| VGGGCVVVVRWG | 0.475 ± 0.012 |
| VGLWCWSFVLVW | 0.103 ± 0.023 |
| VGRVIVIVVAGV | 0.267 ± 0.028 |
| VGVCGSSGRVGG | 0.645 ± 0.012 |
| VGVIGWGGLGVG | 0.485 ± 0.014 |
| VHGWRPLLFHTR | 0.622 ± 0.024 |
| VHTAIFTSWRRL | 0.494 ± 0.017 |
| VIGLLSYFLVYL | 0.406 ± 0.019 |
| VIRSIVSAYMIC | 0.248 ± 0.02 |
| VISGFVLVFRVR | 0.344 ± 0.032 |
| VKGYISLLLVLI | 0.259 ± 0.014 |
| VLAARVVLLRCR | 0.195 ± 0.028 |

Source: the supplement of paper PMC10724198
